Key:
[1] = molecular target: T1, Human VEGF-A 165 (human, UniProt P15692 207-395); experiment: SPR (Biacore), method of Example 1.1
T1 construct: also called hVEGF165
Procedure: (§1) Unreacted moieties on the biosensor surface were blocked with ethanolamine. For kinetic analysis, rate equations derived from the 1:1 Langmuir binding model were fitted simultaneously to multiple antigen injections (using global fit analysis) with the use of Scrubber 2 (BioLogic Software), Biacore Biaevaluation 4.0.1 software or Biacore T100 Evaluation software. Purified antibodies or DVD-Ig molecules were diluted in running buffer for capture across goat anti-human Fc reaction surfaces. Antibodies or DVD-Ig molecules to be captured as a ligand (1 μg/ml) were injected over reaction matrices at a flow rate of 10 μl/minute. During the assay, all measurements were referenced against the capture surface alone (i.e., with no captured antibody or DVD-Ig molecule). […] The equilibrium dissociation constant KD (M) of the reaction between antibodies and the target antigen was then calculated from the kinetic rate constants by the following formula: KD=Koff/Kₒₙ. Binding was recorded as a function of time and kinetic rate constants were calculated. In this assay, on-rates as fast as 10⁶M⁻¹s⁻¹ and off-rates as slow as 10⁻⁶ s⁻¹ could be measured.

[2] = molecular target: T2, Human PDGF-BB (human, UniProt P01127 82-190); experiment: SPR (Biacore), method of Example 1.1
T2 construct: also called hPDGF-BB
T2 sequence (P01127 82-190 limits assumed): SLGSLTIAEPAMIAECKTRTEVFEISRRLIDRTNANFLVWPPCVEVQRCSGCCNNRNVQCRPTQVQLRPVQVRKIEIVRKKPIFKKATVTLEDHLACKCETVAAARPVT
Procedure: as §1

[3] = molecular target: VEGF-A (UniProt P15692-4 27-191, limits assumed); experiment: SPR (Biacore), DVD-Ig captured by anti-human Fc, antigen in flow
Chain of VEGF-A (P15692 other isoform, or with tags, fused parts or gaps limits assumed): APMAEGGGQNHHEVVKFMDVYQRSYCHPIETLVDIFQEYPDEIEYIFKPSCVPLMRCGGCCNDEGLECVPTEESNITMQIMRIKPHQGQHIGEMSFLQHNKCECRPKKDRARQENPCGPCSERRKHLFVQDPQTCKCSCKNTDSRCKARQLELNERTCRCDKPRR
Procedure: as §1, with “For example, approximately 9000 RU of goat anti-human Fc specific polyclonal antibody (Thermo Fisher Scientific Inc., Rockford, Ill.) diluted in 10 mM sodium acetate (pH 4.5) is directly immobilized across a CM5 research grade biosensor chip using a standard amine coupling kit according to manufacturer's instructions and procedures at 25 μg/ml. Unreacted” for “Unreacted”, “calculated.” for “calculated. In this assay, on-rates as fast as 10⁶M⁻¹s⁻¹ and off-rates as slow as 10⁻⁶ s⁻¹ could be measured.”

[4] = molecular target: PDGF-BB (UniProt P01127 82-190); experiment: as above
Chain of PDGF-BB (P01127 82-190): as the sequence (P01127 82-190 limits assumed) above
Procedure: as §1, with “For example, approximately 9000 RU of goat anti-human Fc specific polyclonal antibody (Thermo Fisher Scientific Inc., Rockford, Ill.) diluted in 10 mM sodium acetate (pH 4.5) is directly immobilized across a CM5 research grade biosensor chip using a standard amine coupling kit according to manufacturer's instructions and procedures at 25 μg/ml. Unreacted” for “Unreacted”, “calculated.” for “calculated. In this assay, on-rates as fast as 10⁶M⁻¹s⁻¹ and off-rates as slow as 10⁻⁶ s⁻¹ could be measured.”

T1 sequence (P15692 other isoform, or with tags, fused parts or gaps limits assumed): as the sequence (P15692 other isoform, or with tags, fused parts or gaps limits assumed) above

binding result [1]	Kd [2]	kon [2]	Kd [3]	kon [3]	Kd [4]	kon [4]	Binder
no binding	87 pM	1e+07 M⁻¹ s⁻¹					CODV004 (bispecific antibody, human IgG1, kappa, L234A L235A, Anti-human VEGF-A/anti-human PDGF-BB cross-over DVD-Ig (CO-DVD-Ig); also called PR-1565051) heavy: not shown light: DIQMTQSPSSLSASVGDRVTITCSASQDISNYLNWYQQKPGKAPKVLIYFTSSLHSGVPSRFSGSGSGTDFTLTISSLQPEDFATYYCQQYSTVPWTFGQGTKVEIKGGGSGGGDFQLTQSPSSLSASVGDRVTITCERSSGDIGDSYVSWYQQKPGKAPKNVIYADDQRPSGVPSRFSGSGSGNSASLTISSLQPEDFATYFCQSYDINIDIVFGQGTKVEIKGGGSGRTVAAPSVFIFPPSDEQLKSGTASVVCLLNNFYPREAKVQWKVDNALQSGNSQESVTEQDSKDSTYSLSSTLTLSKADYEKHKVYACEVTHQGLSSPVTKSFNRGEC
			100 pM	920000 M⁻¹ s⁻¹	720 pM	1e+07 M⁻¹ s⁻¹	DVD3906 (PR-1565035) (bispecific antibody, human IgG1, kappa, L234A L235A, DVD-Ig; linkers HG-short/LK-long, inner hBDB-4G8.15 (VEGF); human IgG1 L234A, L235A / kappa) heavy: not shown light: DFQLTQSPSSLSASVGDRVTITCERSSGDIGDTYVSWYQQKPGKAPKNVIYGNDQRPSGVPSRFSGSGSGNSATLTISSLQPEDFATYFCQSYDSDIDIVFGQGTKVEIKGTVAAPSVFIFPPDTQLTQSPSSLSASVGDRVTISCRASESVSTHMHWYQQKPGKAPKLLIYGASNLESGVPSRFSGSGSGTDFTLTISSLQPEDFATYFCQQSWNDPFTFGQGTKVEIKRTVAAPSVFIFPPSDEQLKSGTASVVCLLNNFYPREAKVQWKVDNALQSGNSQESVTEQDSKDSTYSLSSTLTLSKADYEKHKVYACEVTHQGLSSPVTKSFNRGEC
no binding	11 pM	2.3e+07 M⁻¹ s⁻¹					CODV003 (bispecific antibody, human IgG1, kappa, L234A L235A, Anti-human VEGF-A/anti-human PDGF-BB cross-over DVD-Ig (CO-DVD-Ig); also called PR-1565044) heavy: not shown light: DFQLTQSPSSLSASVGDRVTITCERSSGDIGDSYVSWYQQKPGKAPKNVIYADDQRPSGVPSRFSGSGSGNSASLTISSLQPEDFATYFCQSYDINIDIVFGQGTKVEIKGGGSGGGDIQMTQSPSSLSASVGDRVTITCSASQDISNYLNWYQQKPGKAPKVLIYFTSSLHSGVPSRFSGSGSGTDFTLTISSLQPEDFATYYCQQYSTVPWTFGQGTKVEIKGGGSGRTVAAPSVFIFPPSDEQLKSGTASVVCLLNNFYPREAKVQWKVDNALQSGNSQESVTEQDSKDSTYSLSSTLTLSKADYEKHKVYACEVTHQGLSSPVTKSFNRGEC
			94 pM	1.1e+06 M⁻¹ s⁻¹	180 pM	1e+07 M⁻¹ s⁻¹	DVD3905 (PR-1565032) (bispecific antibody, human IgG1, kappa, L234A L235A, DVD-Ig; outer hBDI-9E8.12 (PDGF), linkers HG-short/LK-long, inner hBDB-4G8.15 (VEGF); human IgG1 L234A, L235A / kappa) heavy: not shown light: DFQLTQSPSSLSASVGDRVTITCERSSGDIGDSYVSWYQQKPGKAPKNVIYADDQRPSGVPSRFSGSGSGNSASLTISSLQPEDFATYFCQSYDINIDIVFGQGTKVEIKGTVAAPSVFIFPPDTQLTQSPSSLSASVGDRVTISCRASESVSTHMHWYQQKPGKAPKLLIYGASNLESGVPSRFSGSGSGTDFTLTISSLQPEDFATYFCQQSWNDPFTFGQGTKVEIKRTVAAPSVFIFPPSDEQLKSGTASVVCLLNNFYPREAKVQWKVDNALQSGNSQESVTEQDSKDSTYSLSSTLTLSKADYEKHKVYACEVTHQGLSSPVTKSFNRGEC

Continued, binder first:

Binder	binding result [1]	Kd [2]	kon [2]	Kd [3]	kon [3]	Kd [4]	kon [4]
4G8.3-GS(11)-9E8.4 (g) (PR-1572103) (bispecific antibody, human IgG1, kappa, L234A L235A, DVD-Ig; outer hBDB-4G8.3 (VEGF), linkers GS-H10/GS-L11, inner hBDI-9E8.4 (PDGF); human IgG1 L234A, L235A, H435A / kappa) heavy: EVQLVQSGSELKKPGASVKVSCKASGYTFTNYGMYWVRQAPGQGLEWMGWINTETGKPTYADDFKGRFVFSLDTSVSTAYLQISSLKAEDTAVYYCARTNYYYRSYIFYFDYWGQGTMVTVSSGGGGSGGGGSEVTLRESGPALVKPTQTLTLTCTFSGFSLSTYGMGVGWIRQPPGKALEWLANIWWDDDKYYNPSLKNRLTISKDTSKNQVVLTMTNMDPVDTATYYCARIESIGTTYSFDYWGQGTMVTVSSASTKGPSVFPLAPSSKSTSGGTAALGCLVKDYFPEPVTVSWNSGALTSGVHTFPAVLQSSGLYSLSSVVTVPSSSLGTQTYICNVNHKPSNTKVDKKVEPKSCDKTHTCPPCPAPEAAGGPSVFLFPPKPKDTLMISRTPEVTCVVVDVSHEDPEVKFNWYVDGVEVHNAKTKPREEQYNSTYRVVSVLTVLHQDWLNGKEYKCKVSNKALPAPIEKTISKAKGQPREPQVYTLPPSREEMTKNQVSLTCLVKGFYPSDIAVEWESNGQPENNYKTTPPVLDSDGSFFLYSKLTVDKSRWQQGNVFSCSVMHEALHNAYTQKSLSLSPGK light: DTVLTQSPATLSLSPGERATLSCRASESVSTHMHWYQQKPGQAPRLLIYGASNLESGVPARFSGSGSGTDFTLTISSLEPEDFAVYFCQQSWNDPFTFGQGTKLEIKRGGSGGGGSGGEFVLTQSPGTLSLSPGERATLSCERSSGDIGDSYVSWYQQKPGQAPRLVIYADDQRPSGIPDRFSGSGSGTDFTLTISRLEPEDFAVYYCQSYDINIDIVFGGGTKVEIKRTVAAPSVFIFPPSDEQLKSGTASVVCLLNNFYPREAKVQWKVDNALQSGNSQESVTEQDSKDSTYSLSSTLTLSKADYEKHKVYACEVTHQGLSSPVTKSFNRGEC				12 pM	6.3e+06 M⁻¹ s⁻¹	13 pM	1.4e+07 M⁻¹ s⁻¹
4G8.3-SL-9E8.4 (PR-1564012) (bispecific antibody, human IgG1, kappa, L234A L235A, DVD-Ig; outer hBDB-4G8.3 (VEGF), linkers HG-short/LK-long, inner hBDI-9E8.4 (PDGF); human IgG1 L234A, L235A / kappa) heavy: not shown light: DTVLTQSPATLSLSPGERATLSCRASESVSTHMHWYQQKPGQAPRLLIYGASNLESGVPARFSGSGSGTDFTLTISSLEPEDFAVYFCQQSWNDPFTFGQGTKLEIKRTVAAPSVFIFPPEFVLTQSPGTLSLSPGERATLSCERSSGDIGDSYVSWYQQKPGQAPRLVIYADDQRPSGIPDRFSGSGSGTDFTLTISRLEPEDFAVYYCQSYDINIDIVFGGGTKVEIKGTVAAPSVFIFPPSDEQLKSGTASVVCLLNNFYPREAKVQWKVDNALQSGNSQESVTEQDSKDSTYSLSSTLTLSKADYEKHKVYACEVTHQGLSSPVTKSFNRGEC				13 pM	3.1e+06 M⁻¹ s⁻¹	9.9 pM	1.4e+07 M⁻¹ s⁻¹
4G8.3-SL-9E8.4 (g) (PR-1572105) (bispecific antibody, human IgG1, kappa, L234A L235A, DVD-Ig; outer hBDB-4G8.3 (VEGF), linkers HG-short/LK-long, inner hBDI-9E8.4 (PDGF); human IgG1 L234A, L235A, H435A / kappa; also called hu VEGF 4G8.3-SL-hu PDGF 9E8.4 (germline) [hu IgG1/k]; LALA H435A; DVD-Ig-3) heavy: EVQLVQSGSELKKPGASVKVSCKASGYTFTNYGMYWVRQAPGQGLEWMGWINTETGKPTYADDFKGRFVFSLDTSVSTAYLQISSLKAEDTAVYYCARTNYYYRSYIFYFDYWGQGTMVTVSSASTKGPEVTLRESGPALVKPTQTLTLTCTFSGFSLSTYGMGVGWIRQPPGKALEWLANIWWDDDKYYNPSLKNRLTISKDTSKNQVVLTMTNMDPVDTATYYCARIESIGTTYSFDYWGQGTMVTVSSASTKGPSVFPLAPSSKSTSGGTAALGCLVKDYFPEPVTVSWNSGALTSGVHTFPAVLQSSGLYSLSSVVTVPSSSLGTQTYICNVNHKPSNTKVDKKVEPKSCDKTHTCPPCPAPEAAGGPSVFLFPPKPKDTLMISRTPEVTCVVVDVSHEDPEVKFNWYVDGVEVHNAKTKPREEQYNSTYRVVSVLTVLHQDWLNGKEYKCKVSNKALPAPIEKTISKAKGQPREPQVYTLPPSREEMTKNQVSLTCLVKGFYPSDIAVEWESNGQPENNYKTTPPVLDSDGSFFLYSKLTVDKSRWQQGNVFSCSVMHEALHNAYTQKSLSLSPGK light: DTVLTQSPATLSLSPGERATLSCRASESVSTHMHWYQQKPGQAPRLLIYGASNLESGVPARFSGSGSGTDFTLTISSLEPEDFAVYFCQQSWNDPFTFGQGTKLEIKRTVAAPSVFIFPPEFVLTQSPGTLSLSPGERATLSCERSSGDIGDSYVSWYQQKPGQAPRLVIYADDQRPSGIPDRFSGSGSGTDFTLTISRLEPEDFAVYYCQSYDINIDIVFGGGTKVEIKRTVAAPSVFIFPPSDEQLKSGTASVVCLLNNFYPREAKVQWKVDNALQSGNSQESVTEQDSKDSTYSLSSTLTLSKADYEKHKVYACEVTHQGLSSPVTKSFNRGEC				11 pM	5.6e+06 M⁻¹ s⁻¹	13 pM	1.3e+07 M⁻¹ s⁻¹
4G8.3-LS-9E8.4 (PR-1564013) (bispecific antibody, human IgG1, kappa, L234A L235A, DVD-Ig; outer hBDB-4G8.3 (VEGF), linkers HG-long/LK-short, inner hBDI-9E8.4 (PDGF); human IgG1 L234A, L235A / kappa) heavy: not shown light: DTVLTQSPATLSLSPGERATLSCRASESVSTHMHWYQQKPGQAPRLLIYGASNLESGVPARFSGSGSGTDFTLTISSLEPEDFAVYFCQQSWNDPFTFGQGTKLEIKRTVAAPEFVLTQSPGTLSLSPGERATLSCERSSGDIGDSYVSWYQQKPGQAPRLVIYADDQRPSGIPDRFSGSGSGTDFTLTISRLEPEDFAVYYCQSYDINIDIVFGGGTKVEIKGTVAAPSVFIFPPSDEQLKSGTASVVCLLNNFYPREAKVQWKVDNALQSGNSQESVTEQDSKDSTYSLSSTLTLSKADYEKHKVYACEVTHQGLSSPVTKSFNRGEC				12 pM	3.1e+06 M⁻¹ s⁻¹	8.6 pM	1.7e+07 M⁻¹ s⁻¹
DVD3904 (PR-1565031) (bispecific antibody, human IgG1, kappa, L234A L235A, DVD-Ig; linkers HG-short/LK-long, inner hBDB-4G8.14 (VEGF); human IgG1 L234A, L235A / kappa) heavy: not shown light: DFQLTQSPSSLSASVGDRVTITCERSSGDIGDSYVSWYQQKPGKAPKNVIYADDQRPSGVPSRFSGSGSGNSASLTISSLQPEDFATYFCQSYDINIDIVFGQGTKVEIKGTVAAPSVFIFPPDTVLTQSPSTLSASPGERATISCRASESVSTHMHWYQQKPGQAPKLLIYGASNLESGVPSRFSGSRSGTDFTLTISSLQPEDFAVYFCQQSWNDPFTFGQGTKVEIKRTVAAPSVFIFPPSDEQLKSGTASVVCLLNNFYPREAKVQWKVDNALQSGNSQESVTEQDSKDSTYSLSSTLTLSKADYEKHKVYACEVTHQGLSSPVTKSFNRGEC				190 pM	610000 M⁻¹ s⁻¹	90 pM	1e+07 M⁻¹ s⁻¹

Source: US20170015742A1 (published 2017)
